Test results published in article PMC10164398.

Target: fluorescein-labeled NS1 (89–237) (H3N2) (influenza A virus H3N2)
Assay: […]

fluorescein-labeled NS1 (89–237) (H3N2) (influenza A virus H3N2), sequence (P03495 89-237 limits assumed): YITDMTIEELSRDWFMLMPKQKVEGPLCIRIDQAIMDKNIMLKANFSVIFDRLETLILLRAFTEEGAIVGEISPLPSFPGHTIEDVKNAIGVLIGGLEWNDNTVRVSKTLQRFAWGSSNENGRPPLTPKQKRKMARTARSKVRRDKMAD
human eIF4E, sequence (P06730 whole entry): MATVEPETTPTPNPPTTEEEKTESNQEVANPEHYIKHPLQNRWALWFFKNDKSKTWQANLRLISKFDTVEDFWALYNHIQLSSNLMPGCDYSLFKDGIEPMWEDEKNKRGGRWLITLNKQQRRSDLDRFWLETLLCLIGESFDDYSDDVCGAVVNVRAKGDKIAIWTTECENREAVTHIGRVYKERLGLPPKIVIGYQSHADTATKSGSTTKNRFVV

Row | Substance | Kd
1 | eIF4G1 (88–653) (from UniProt Q04637 88-653) (domain or fragment) | 0.264 µM
2 | human eIF4E (from UniProt P06730 1-217) (natural protein) | 0.177 µM
